Test results: patent US20170369552A1

Assays:
[1] = biological target: VEGF165, a splice variant of VEGF-A (UniProt P15692); assay: cell-based or functional assay
[2] = biological target: VEGF165, a splice variant of VEGF-A (UniProt P15692); assay: direct binding ELISA; VEGF165 coated, anti-human IgG Fc-HRP detection
[3] = biological target: VEGF165, a splice variant of VEGF-A (UniProt P15692); assay: competitive binding in solution; 5 pM VEGF165 overnight, free VEGF165 by Quantikine sandwich ELISA

VEGF165, a splice variant of VEGF-A, sequence (P15692 other isoform, or with tags, fused parts or gaps mutant): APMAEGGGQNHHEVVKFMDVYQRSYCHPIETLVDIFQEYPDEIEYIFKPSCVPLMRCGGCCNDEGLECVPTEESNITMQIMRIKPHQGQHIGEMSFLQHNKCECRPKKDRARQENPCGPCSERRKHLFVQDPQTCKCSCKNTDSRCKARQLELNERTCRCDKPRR

- inhibition of VEGF-dependent HUVEC proliferation, IC50 [1]: 0.068 nM
- EC50 [2]: 0.087 nM
- IC50 [3]: 0.00517 nM
Substance: Positive Control 1 (synthesized VEGF Trap) (from UniProt P17948 129-230; P35968 225-327) (Fc fusion)
